We go through ten molecules from US20220002344A1 (CENTRE NATIONAL DE LA RECHERCHE SCIENTIFIQUE, published 2022).

Square brackets hold non-standard residues; d marks the D form. Ends that are not written are not given here. * marks the point of attachment. FITC = O=C1OC2(c3ccc(O)cc3Oc3cc(O)ccc32)c2ccc(NC(=S)*)cc21; Cha = N[C@@H](CC1CCCCC1)C(=O)O

Assay [1] addresses T1, E. coli 70S ribosome particle (E. coli).
T1 construct: also called ^Ec70S
As to the kind of experiment: ITC, 30 °C, against the same peptide on E. coli SC. A general note: Isothermal titration calorimetry measures the heat released or taken up as one component is titrated into another.

In assay [2] the target is T1, E. coli 70S ribosome particle. Put plainly: ITC, 30 °C, peptide titrated into E. coli 70S ribosome.
The target of assay [3] is T2, E. coli sliding clamp (DnaN protein, β subunit of DNA polymerase III) (E. coli, UniProt P0A988 1-366).
T2 construct: Recombinant DnaN for ITC (a tag from pET15b is implied by the Ni-NTA step but not described); also called ^EcSC; SC
T2 sequence (P0A988 whole entry): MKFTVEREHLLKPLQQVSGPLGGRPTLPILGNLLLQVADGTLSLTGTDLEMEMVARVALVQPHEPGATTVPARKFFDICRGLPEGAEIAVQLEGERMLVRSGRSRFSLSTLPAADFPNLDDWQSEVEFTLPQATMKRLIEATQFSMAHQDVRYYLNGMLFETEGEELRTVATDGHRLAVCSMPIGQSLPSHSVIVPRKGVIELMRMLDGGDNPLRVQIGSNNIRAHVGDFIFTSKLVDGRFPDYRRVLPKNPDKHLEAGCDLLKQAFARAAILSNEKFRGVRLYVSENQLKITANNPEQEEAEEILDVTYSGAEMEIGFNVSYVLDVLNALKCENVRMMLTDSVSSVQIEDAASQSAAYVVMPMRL
Put plainly: ITC, 30 °C, peptide titrated into E. coli SC.

Assay [4] has as its target T2, E. coli sliding clamp (DnaN protein, β …). Put plainly: ITC, 25 °C, E. coli SC (beta ring).
For assay [5] the target is unchanged. Put plainly: ITC, 30 °C.
The target in assay [6] is T1, E. coli 70S ribosome particle. Put plainly: ITC, 30 °C, peptide titrated into E. coli 70S ribosome; values not well defined (footnote *).
For assay [7] the target is unchanged. Put plainly: ITC, 30 °C as the table's head says, E. coli ribosome.
Assay [8] has the same target. Put plainly: ITC, E. coli ribosome (70S).
For assay [9] the target is unchanged. As to the kind of experiment: ITC, 30 °C, against Py on the 70S ribosome.
Assay [10] deals with T2, E. coli sliding clamp (DnaN protein, β …). As to the kind of experiment: ITC, 30 °C, E. coli SC.
The target in assay [11] is T3, Human PCNA (Proliferating Cell Nuclear Antigen) (Human, UniProt P12004 1-261).
T3 construct: Source and limits of the construct are not described
T3 sequence (P12004 whole entry): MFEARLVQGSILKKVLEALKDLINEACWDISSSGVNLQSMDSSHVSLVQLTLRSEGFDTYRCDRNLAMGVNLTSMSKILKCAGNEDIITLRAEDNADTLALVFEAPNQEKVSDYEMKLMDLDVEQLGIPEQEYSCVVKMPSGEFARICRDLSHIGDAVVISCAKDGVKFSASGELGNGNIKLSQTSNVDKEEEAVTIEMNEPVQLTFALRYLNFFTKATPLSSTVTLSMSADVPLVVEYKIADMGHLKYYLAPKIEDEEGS
As to the kind of experiment: ITC, 30 °C.

B1: P116 (Py-P7), …haDLF-OH (peptide)
peptide: VDKGSYLPRPTPPRPIYNRNGPRQ[Cha]DLF-OH
modifications: N-terminus assumed
SMILES: CC[C@H](C)[C@H](NC(=O)[C@@H]1CCCN1C(=O)[C@H](CCCNC(=N)N)NC(=O)[C@@H]1CCCN1C(=O)[C@@H]1CCCN1C(=O)[C@@H](NC(=O)[C@@H]1CCCN1C(=O)[C@H](CCCNC(=N)N)NC(=O)[C@@H]1CCCN1C(=O)[C@H](CC(C)C)NC(=O)[C@H](Cc1ccc(O)cc1)NC(=O)[C@H](CO)NC(=O)CNC(=O)[C@H](CCCCN)NC(=O)[C@H](CC(=O)O)NC(=O)[C@@H](N)C(C)C)[C@@H](C)O)C(=O)N[C@@H](Cc1ccc(O)cc1)C(=O)N[C@@H](CC(N)=O)C(=O)N[C@@H](CCCNC(=N)N)C(=O)N[C@@H](CC(N)=O)C(=O)NCC(=O)N1CCC[C@H]1C(=O)N[C@@H](CCCNC(=N)N)C(=O)N[C@@H](CCC(N)=O)C(=O)N[C@@H](CC1CCCCC1)C(=O)N[C@@H](CC(=O)O)C(=O)N[C@@H](CC(C)C)C(=O)N[C@@H](Cc1ccccc1)C(=O)O
notes: Fusion of pyrrhocoricin, GPR linker and P7
As a reminder, the Kd is the concentration at which binding is half-saturated. The low end stands for tighter binding, the high end for weaker binding. With B1, in [1], the “fold higher affinity for the ribosome than for SC” value was determined as 3 fold. In assay [2], the “-TΔS” value was found to be 12 kcal/mol, binding was put at a Kd of 37 nM, the ΔG is -10.3 kcal/mol and the ΔH is -22.3 kcal/mol. Besides, in assay [3], the “-TΔS” value came to 4.3 kcal/mol, the dissociation constant Kd was determined as 119 nM, the ΔG was -9.61 kcal/mol and the ΔH is -13.9 kcal/mol.

B2: CM1-76 (P7-Onc112), AcQChaDLF-GPR-Onc112-NH2 (peptide)
peptide: Ac-Q[Cha]DLFGPRVDKPPYLPRPRPPR[dR]IYN[dR]-NH2
SMILES: CC[C@H](C)[C@H](NC(=O)[C@@H](CCCNC(=N)N)NC(=O)[C@H](CCCNC(=N)N)NC(=O)[C@@H]1CCCN1C(=O)[C@@H]1CCCN1C(=O)[C@H](CCCNC(=N)N)NC(=O)[C@@H]1CCCN1C(=O)[C@H](CCCNC(=N)N)NC(=O)[C@@H]1CCCN1C(=O)[C@H](CC(C)C)NC(=O)[C@H](Cc1ccc(O)cc1)NC(=O)[C@@H]1CCCN1C(=O)[C@@H]1CCCN1C(=O)[C@H](CCCCN)NC(=O)[C@H](CC(=O)O)NC(=O)[C@@H](NC(=O)[C@H](CCCNC(=N)N)NC(=O)[C@@H]1CCCN1C(=O)CNC(=O)[C@H](Cc1ccccc1)NC(=O)[C@H](CC(C)C)NC(=O)[C@H](CC(=O)O)NC(=O)[C@H](CC1CCCCC1)NC(=O)[C@H](CCC(N)=O)NC(C)=O)C(C)C)C(=O)N[C@@H](Cc1ccc(O)cc1)C(=O)N[C@@H](CC(N)=O)C(=O)N[C@H](CCCNC(=N)N)C(N)=O
Consider B2, for which, in assay [4], the equilibrium dissociation constant (Kd) worked out at 258 nM, the n was 1, the ΔG is -9 kcal/mol and the ΔH is -10.7 kcal/mol.

B3: P30 (Onc112-P7), VDKPPYLPRPRPPRrIYNrNGPRQChaDLF-OH (peptide)
peptide: VDKPPYLPRPRPPR[dR]IYN[dR]NGPRQ[Cha]DLF-OH
notes: Fusion of Onc112 and P7; the printed Mw 3472.08 agrees with that N; also called CA3-30; Onc-P7
Take B3: the “fold higher affinity for the ribosome than for SC” value in assay [1] is 3 fold. In assay [2], the “-TΔS” value was found to be 15.7 kcal/mol; the affinity, expressed as Kd, was 70.4 nM; the ΔG is -9.92 kcal/mol; the ΔH was -25.6 kcal/mol. Also, in assay [4], the Kd came out at 180 nM, the n amounted to 0.9, the ΔG was -9.2 kcal/mol and the ΔH is -14.6 kcal/mol. Further, in assay [3], the “-TΔS” value came to 4.2 kcal/mol, the Kd amounted to 205 nM, the ΔG was -9.28 kcal/mol and the ΔH was -13.5 kcal/mol.

B4: P120 (Onc112-P7Scr), VDKPPYLPRPRPPRrIYNrNGPRChaFQLD-OH (peptide)
peptide: VDKPPYLPRPRPPR[dR]IYN[dR]NGPR[Cha]FQLD-OH
notes: Control fusion peptide with scrambled P7; also called Onc112-Scr
With B4, in [2], the “-TΔS” value is 3.12 kcal/mol, the Kd came out at 101 nM, the ΔG was -9.85 kcal/mol and the ΔH is -13 kcal/mol. For the same molecule, the binding result in assay [5] is “no binding”.

Regarding {FITC}-KVDKGSYLPRPTPPRPIYNRNGPR[Cha]FQLD-OH (also called FITC-K-Py-P7Scr; CA4-72) [P72 (FITC-Py-P7Scr), FITC-…haFQLD-OH], in assay [5], the binding result was “no binding”. Besides, in assay [6], the “-TΔS” value turned out to be 2.94 kcal/mol, the ΔG is -5.98 kcal/mol and the ΔH was -8.92 kcal/mol.

In [7], VDKPPYLPRPRPPR[dR]IYN[dR]-NH2 (also called CA3 28; CA3-28) [P28 (Onc112), VDKPPYLPRPRPPRrIYNr-NH2] had a Kd of 241 nM, a ΔG of -9.2 kcal/mol and a ΔH of -16.2 kcal/mol. In assay [8], this molecule returned a dissociation constant (Kd) of 241 nM, a n of 1, a ΔG of -9.2 kcal/mol and a ΔH of -16.2 kcal/mol. Further, in assay [2], the “-TΔS” value came to 14 kcal/mol; the affinity, expressed as Kd, was 84 nM; the ΔG is -9.82 kcal/mol; the ΔH was -23.9 kcal/mol. In addition, in assay [5], the binding result is recorded as “no binding”. The “fold lower affinity than Py” value in [9] came to 5 fold.

As for {FITC}-KVDKGSYLPRPTPPRPIYNRN-NH2 (ends and bridges not checked, also called FITC-K-Py; FITC-K-Pyr) [P122 (FITC-Py), FITC-KVDKGSYLPRPTPPRPIYNRN-NH2], the binding result in assay [5] is “no binding”. Also, in [6], the “-TΔS” value was 13.3 kcal/mol, the ΔG is -6.91 kcal/mol and the ΔH was -20.1 kcal/mol.

As to {FITC}-KVDKGSYLPRPTPPRPIYNRNGPRQ[Cha]DLF-OH (also called FITC-K-Py-P7; CA2-150) [P150 (FITC-Py-P7), FITC-…haDLF-OH], in [3], the “-TΔS” value amounted to 8.21 kcal/mol, the Kd is 390 nM, the ΔG is -8.99 kcal/mol and the ΔH was -17.2 kcal/mol. In assay [6], the “-TΔS” value came to 6.7 kcal/mol, the ΔG is -6.27 kcal/mol and the ΔH was -13 kcal/mol.

B5: P7 (Ac-QChaDLF-OH) (peptide)
peptide: Ac-Q[Cha]DLF-OH
SMILES: CC(=O)N[C@@H](CCC(N)=O)C(=O)N[C@@H](CC1CCCCC1)C(=O)N[C@@H](CC(=O)O)C(=O)N[C@@H](CC(C)C)C(=O)N[C@@H](Cc1ccccc1)C(=O)O
notes: also called CA2 68; AcQXDLF
In [4], B5 showed a Kd of 170 nM, a n of 0.9, a ΔG of -9.2 kcal/mol and a ΔH of -15.4 kcal/mol. In assay [10], this molecule displayed a Kd of 408 nM, a n of 1 and a ΔH of -12.1 kcal/mol. Moreover, in assay [3], the “-TΔS” value amounted to 4.71 kcal/mol, the dissociation constant Kd turned out to be 332 nM, the ΔG is -9 kcal/mol and the ΔH is -13.7 kcal/mol. Besides, the binding result in [11] was “no binding”.

B6: Py (Pyrrhocoricin), VDKGSYLPRPTPPRPIYNRN-NH2 (peptide)
peptide: VDKGSYLPRPTPPRPIYNRN-NH2
notes: Bought from Novopro; also called unglycosylated pyrrhocoricin
For B6, in [2], the “-TΔS” value was 8.23 kcal/mol, binding was characterised by a dissociation constant (Kd) of 15.5 nM, the ΔG was -10.9 kcal/mol and the ΔH is -19.2 kcal/mol. In addition, in assay [5], the binding result is recorded as “no binding”.
